Substitutions are numbered along the chain they refer to. One block for each binder: values may come before it.
Legend:
[1] = molecular target: T1, human GPC3 on HepG2 cells (human, UniProt P51654 25-554); assay: flow cytometry, HepG2 cells (GPC3 positive), geometric mean
T1 construct: whole, on cells; also called GPC3-positive HepG2 cells

[2] = molecular target: T2, human CD16A-158F expressed on CHO-K1 cells (human, UniProt P08637 17-254); assay: flow cytometry, CHO-K1-hCD16A-158F cells, geometric mean
T2 construct: whole, on cells

[3] = molecular target: T3, human CD16A-158V expressed on CHO-K1 cells (human, UniProt P08637 17-254); assay: flow cytometry, CHO-K1-hCD16A-158V cells, geometric mean
T3 construct: whole, on cells; also called hCD16A-158V; CHO-K1-hCD16A-158V
From the text: (§1) The purpose of the assay was to evaluate the binding of BsAb to each of the hFcγRs.

[4] = molecular target: T2, human CD16A-158F expressed on CHO-K1 …; assay: flow cytometry, CHO-K1-hCD16A-158F cells, geometric mean; remark: listed apart in the source
From the text: as §1

[5] = molecular target: T3, human CD16A-158V expressed on CHO-K1 …; assay: flow cytometry, CHO-K1-hCD16A-158V cells, geometric mean; remark: listed apart in the source
Experimental: (§2) In order to evaluate the binding activity of the chimeric mAbs to human CD16A expressed on cells, cell-based binding assay was employed as followed. […] The antibody dilutions were incubated with 1×10⁵ indicated cells in the 96-well microplate for one hour at 4° C. The antibodies binding to the antigen on the cell surface were detected with PE fluorophore-conjugated anti-human IgG Fc secondary antibodies (ThermoFisher scientific, Cat. No. 12-4998-82) at a dilution rate of 1:1000. Cells were analyzed by flow cytometer LSRFortessa Cell Analyzer (BD Biosciences). Data were analyzed with Flowjo 10.0 software. The graph and statistics analysis were generated with four-parameter nonlinear regression curve fit in Graphpad Prism 9 software.
(§3) The assay was performed following the protocol described above.

[6] = molecular target: T4, cynomolgus CD16 expressed on CHO-K1 cells (cynomolgus, UniProt Q8SPW2 17-254); assay: flow cytometry, CHO-K1-cyno CD16 cells, Alexa Fluor 647 anti-human IgG Fc, geometric mean
T4 construct: whole, on cells; also called cyno CD16; CHO-K1-cynoCD16
Experimental: as §2
(§4) The assay was performed following the protocol described above. The antibodies binding to the antigen on the cell surface were detected with Alexa Fluor® 647 AffiniPure™ F(ab′)₂ fragment goat anti-human IgG Fcγ fragment specific secondary antibody (Jackson Immuno Research, Cat. No. 109-606-098) at a dilution rate of 1:2000.

[7] = molecular target: T4, cynomolgus CD16 expressed on CHO-K1 …; assay: flow cytometry, CHO-K1-cyno CD16 cells, geometric mean
Experimental: as §2, §3

[8] = molecular target: T2, human CD16A-158F expressed on CHO-K1 …; assay: flow cytometry, CHO-K1-hCD16A-158F cells, geometric mean; remark: listed apart in the source
Experimental: as §2, §3

[9] = molecular target: T2, human CD16A-158F expressed on CHO-K1 …; assay: flow cytometry, CHO-K1-hCD16A-158F cells, Alexa Fluor 647 anti-human IgG Fc, geometric mean
Experimental: as §2, §4

[10] = molecular target: T3, human CD16A-158V expressed on CHO-K1 …; assay: flow cytometry, CHO-K1-hCD16A-158V cells, Alexa Fluor 647 anti-human IgG Fc, geometric mean
Experimental: as §2, §4

T1 sequence (P51654 25-554 limits assumed): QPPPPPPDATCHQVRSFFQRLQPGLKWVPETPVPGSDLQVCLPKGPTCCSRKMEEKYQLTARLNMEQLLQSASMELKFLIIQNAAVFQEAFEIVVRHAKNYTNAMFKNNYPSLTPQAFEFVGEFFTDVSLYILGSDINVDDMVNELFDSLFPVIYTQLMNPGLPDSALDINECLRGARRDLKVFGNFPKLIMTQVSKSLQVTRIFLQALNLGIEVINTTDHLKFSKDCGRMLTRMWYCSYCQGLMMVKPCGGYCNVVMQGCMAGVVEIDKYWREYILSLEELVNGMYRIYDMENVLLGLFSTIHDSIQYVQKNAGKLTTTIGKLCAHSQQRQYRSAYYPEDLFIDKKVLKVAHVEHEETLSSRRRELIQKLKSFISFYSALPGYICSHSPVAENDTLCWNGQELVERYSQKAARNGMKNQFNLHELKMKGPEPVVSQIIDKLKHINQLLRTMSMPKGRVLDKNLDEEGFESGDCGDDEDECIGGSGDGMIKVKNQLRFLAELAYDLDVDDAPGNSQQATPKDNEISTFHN
T2 sequence (P08637 17-254): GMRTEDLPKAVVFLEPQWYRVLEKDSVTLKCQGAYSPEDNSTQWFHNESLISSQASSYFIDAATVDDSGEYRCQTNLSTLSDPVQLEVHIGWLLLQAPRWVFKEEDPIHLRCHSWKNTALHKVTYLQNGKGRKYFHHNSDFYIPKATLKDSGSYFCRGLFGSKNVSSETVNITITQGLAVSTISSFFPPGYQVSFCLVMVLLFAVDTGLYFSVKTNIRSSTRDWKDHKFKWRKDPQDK
T3 sequence (P08637 17-254 F176V): as the sequence (P08637 17-254) above, with F160V counted along it
T4 sequence (Q8SPW2 17-254): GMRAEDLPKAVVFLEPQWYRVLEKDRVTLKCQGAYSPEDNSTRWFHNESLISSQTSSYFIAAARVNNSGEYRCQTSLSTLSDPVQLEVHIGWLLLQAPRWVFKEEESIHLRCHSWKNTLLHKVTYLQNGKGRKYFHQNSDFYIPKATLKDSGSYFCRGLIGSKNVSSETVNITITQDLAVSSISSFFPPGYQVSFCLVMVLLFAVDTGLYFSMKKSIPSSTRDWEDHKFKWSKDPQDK

B1: GPC3-hIgG1DE (antibody)
chain 1: not shown
chain 2: DIVMTQTPLSLSVTPGQPASISCRSSQSLVHSNGNTYLQWYLQKPGQSPQLLIYKVSNRFSGVPDRFSGSGSGTDFTLKISRVEAEDVGVYYCFQSIHVPYTFGGGTKLEIKRTVAAPSVFIFPPSDEQLKSGTASVVCLLNNFYPREAKVQWKVDNALQSGNSQESVTEQDSKDSTYSLSSTLTLSKADYEKHKVYACEVTHQGLSSPVTKSFNRGEC
EC50 (read off the curve) [1]: ~0.3 nM

B2: GPC3-hIgG1 (antibody)
heavy: not shown
light: B1 chain 2
notes: also called GPC3-hIgG1 mAb with wild-type Fc region
EC50 (read off the curve) [1]: ~0.3 nM
binding result [2]: no binding (tested: 100 nM)

B3: CCR8-hIgG1 mAb (antibody)
VH: not shown
VL: DIVMTQSPLSLPVTPGEPASISCRSSKSLLHSNANTYLYWYLQKPGQSPQLLIYRMSNLASGVPDRFSGSGSGTAFTLKISRVEAEDVGVYYCMQHLEYPFTFGGGTKLEIKRTVAAPSVFIFPPSDEQLKSGTASVVCLLNNFYPREAKVQWKVDNALQSGNSQESVTEQDSKDSTYSLSSTLTLSKADYEKHKVYACEVTHQGLSSPVTKSFNRGEC
notes: Wildtype human IgG1; also called anti-hCCR8 monoclonal antibody with wildtype Fc hIgG1
EC50 [3]: 5.2 nM
EC50 [4]: 20 nM

Further lines, results first:

EC50 [3]: 0.57 nM
EC50 [4]: 0.29 nM
B4: CCR8-45H6E8-hIgG1LALAPG (bispecific antibody)
heavy: EVQLVESGGGLVQPGGSLRLSCAASGFSFNTYVMNWVRQAPGKGLEWVARIRTKSNNYATFYVDSVKDRFTISRDDSKNSLYLQMNSLKTEDTAVYYCVSGTITRLGAGLDYWGQGTLVTVSSASTKGPSVFPLAPSSKSTSGGTAALGCLVKDYFPEPVTVSWNSGALTSGVHTFPAVLQSSGLYSLSSVVTVPSSSLGTQTYICNVNHKPSNTKVDKKVEPKSCDKTHTCPPCPAPEAAGGPSVFLFPPKPKDTLMISRTPEVTCVVVDVSHEDPEVKFNWYVDGVEVHNAKTKPREEQYNSTYRVVSVLTVLHQDWLNGKEYKCKVSNKALGAPIEKTISKAKGQPREPQVYTLPPSREEMTKNQVSLTCLVKGFYPSDIAVEWESNGQPENNYKTTPPVLDSDGSFFLYSKLTVDKSRWQQGNVFSCSVMHEALHNHYTQKSLSLSPGKGGGGSGGGGSGGGGSEVQLQQSGAELVRSGASVKLSCTASGFNIKDYYMQWVKQRPEQGLEWIGWIDPENGDTEYAPKFQGKATMTADTSSNTAYLQLSSLTSEDTAVYYCTTGGNYVDWGQGTTLTVSSGGGGSGGGGSGGGGSDIVMTQSQKFMSTSVGDRVSITCKASQNVGTAVAWYQQKPGQSPKLLIYSASNRYTGVPDRFTGSGSGTDFTLTISNMQSEDLADYFCQQYSSYPLLTFGAGTNLELK
light: B3 VL
notes: to be checked; also called CCR8-45H6E8-hIgG1LALAPG BsAb; CCR8-45H6E8 LALAPG BsAb

EC50 (read off the curve) [5]: ~0.4 nM
EC50 (read off the curve) [6]: ~1 nM
EC50 (read off the curve) [7]: ~0.7 nM
EC50 (read off the curve) [8]: ~0.4 nM
EC50 (read off the curve) [9]: ~0.4 nM
EC50 (read off the curve) [10]: ~0.4 nM
B5: 45H6E8-z21 (antibody, human IgG1, V domains shown)
VH: QVQLVQSGAEVKKPGASVKVSCKVSGYTLTDYYMQWVRQAPGKGLEWMGWIDPENGDTEYAPKFQGRVTMTADTSTDTAYMELSSLRSEDTAVYYCTTGGNYVDWGQGTTVTVSS
VL: DIQMTQSPSFLSASVGDRVTITCKASQNVGTAVAWYQQKPGKAPKLLIYSASNRYTGVPDRFSGSGSGTDFTLTISSLQPEDFATYFCQQYSSYPLLTFGQGTRLEIK
notes: Human IgG1 LALAPG constant region; also called HU-VH1-8 / HU-VL1-3

binding result [1]: no binding (tested: 100 nM)
B6: 45H6E8-z21p1 (antibody, V domains shown)
VH: B5 VH with N55Q
VL: B5 VL
notes: PTM-removed version of z21
